Measured values from PMC6719858, “Mitochondrial single-stranded DNA binding protein novel de novo SSBP1 mutation in a child with single large-scale mtDNA deletion (SLSMD) clinically manifesting as Pearson, Kearns-Sayre, and Leigh syndromes” (PLoS ONE, 2019).

T1: SSBP1 p.E27K (human, UniProt Q04837 17-148, E27K)
T1 sequence: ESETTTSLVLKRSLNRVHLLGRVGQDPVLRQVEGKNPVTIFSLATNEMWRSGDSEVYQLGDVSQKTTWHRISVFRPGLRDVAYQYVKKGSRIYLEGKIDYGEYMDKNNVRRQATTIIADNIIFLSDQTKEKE

T2: SSBP1 WT (mtSSB) (human, UniProt Q04837 17-148)
T2 sequence: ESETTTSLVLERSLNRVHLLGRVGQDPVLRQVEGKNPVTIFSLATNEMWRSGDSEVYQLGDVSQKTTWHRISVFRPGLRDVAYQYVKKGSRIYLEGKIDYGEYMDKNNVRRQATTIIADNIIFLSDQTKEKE

B1: wild-type human mitochondrial single-stranded DNA-binding protein (SSBP1) (natural protein, UniProt Q04837 17-148, looked up)
chain: ESETTTSLVLERSLNRVHLLGRVGQDPVLRQVEGKNPVTIFSLATNEMWRSGDSEVYQLGDVSQKTTWHRISVFRPGLRDVAYQYVKKGSRIYLEGKIDYGEYMDKNNVRRQATTIIADNIIFLSDQTKEKE
notes: No tag is mentioned; also called WT SSBP1; HmtSSB; source: E. coli BL21(DE3), purified (Affi-Gel Blue, MonoQ, Superdex 200)
B2: p.E27K human mitochondrial single-stranded DNA-binding protein (SSBP1) (natural protein, UniProt Q04837 17-148, looked up)
chain: ESETTTSLVLKRSLNRVHLLGRVGQDPVLRQVEGKNPVTIFSLATNEMWRSGDSEVYQLGDVSQKTTWHRISVFRPGLRDVAYQYVKKGSRIYLEGKIDYGEYMDKNNVRRQATTIIADNIIFLSDQTKEKE
notes: Homotetramer of four mutant chains; The variant was found de novo in a patient; No tag is mentioned; also called p.E27K SSBP1; E27K SSBP1; source: E. coli BL21(DE3), purified (Affi-Gel Blue, MonoQ, Superdex 200)

Columns and labels:
[1] = molecular target: the molecule itself; experiment: SEC; Superdex 200 10/300 GL, AKTA FPLC, Storage Buffer (30 mM HEPES-KOH pH 7.6, 250 mM KCl, 0.25 mM EDTA, 2 mM dithiothreitol, 10% glycerol); purified recombinant protein; single peak read as tetramer
SSBP1 p.E27K = molecular target: T1, SSBP1 p.E27K; experiment: fluorescence anisotropy; 5 mM MgCl2; apparent Kd, protein as tetramer; 20 nM DNA; quadratic fit; plateau anisotropy about 1.4-fold higher than WT; 30 mM HEPES-KOH pH 7.6, 50 mM KCl, 2 mM DTT, 5 mM MgCl2, 20 nM FAM-oligonucleotide, 37 C; details: protein: recombinant; chain copies: 4; label: 3' FAM (fluorescein); single strand
SSBP1 WT (mtSSB) = molecular target: T2, SSBP1 WT (mtSSB); experiment: fluorescence anisotropy; 5 mM MgCl2; apparent Kd, protein as tetramer; 20 nM DNA; quadratic fit; 30 mM HEPES-KOH pH 7.6, 50 mM KCl, 2 mM DTT, 5 mM MgCl2, 20 nM FAM-oligonucleotide, 37 C; details: protein: recombinant; chain copies: 4; label: 3' FAM (fluorescein); single strand

Binder | stoichiometry N [1] | Kd (SSBP1 p.E27K) [nM] | Kd (SSBP1 WT (mtSSB)) [nM]
B1 | 4 |  | 
B2 | 4 |  | 
AATGCTATCACTATTCGTAGACTTGACCACACCTTGTCAGCTCACGCTCC (ssDNA) [FAM-labeled 50 nt ssDNA] |  | 9.3 | 2.3
